Test [1] deals with 18:0 acyl-ACP.
Test [2] addresses 16:0 acyl-ACP.
The target in test [3] is 18:1 acyl-ACP.
In test [4] the target is 16:0 acyl-ACP. The source holds these as a separate data set.
The target in test [5] is 14:0-ACP.
Test [6] deals with 18:0 acyl-ACP. The source holds these as a separate data set.
For test [7], the target named is California bay (Umbellularia californica) C12 preferring acyl-ACP thioesterase, wild type, mature protein from pCGN3823 (California bay (Umbellularia californica)). In words: inhibition of 14:0-ACP thioesterase activity; 5 µM cold 12:0-ACP against 5 µM 14C labeled 14:0-ACP as competitor.
Test [8] addresses bay thioesterase triple mutant M197R/R199H/T231K (California bay (Umbellularia californica)). Described as above.
The target in test [9] is California bay (Umbellularia californica) C12 preferring acyl-ACP thioesterase, wild type, mature protein from pCGN3823 (California bay (Umbellularia californica)). Nature of the test: inhibition kinetics of thioesterase activity; slope inhibition constant of 12:0-ACP with 14:0-ACP as varied substrate.
Test [10] deals with bay thioesterase triple mutant M197R/R199H/T231K (California bay (Umbellularia californica)). The description is as above.
Test [11] has as its target California bay (Umbellularia californica) C12 preferring acyl-ACP thioesterase, wild type, mature protein from pCGN3823 (California bay (Umbellularia californica)). Nature of the test: inhibition of 14:0-ACP thioesterase activity; 25 µM cold 12:0-ACP against 5 µM 14C labeled 14:0-ACP as competitor.
In test [12] the target is bay thioesterase triple mutant M197R/R199H/T231K (California bay (Umbellularia californica)). The test is described as above.
Test [13] deals with 14:0-ACP. The source holds these as a separate data set.
The target in test [14] is 12:0-ACP.
The target in test [15] is 12:0-ACP. The source holds these as a separate data set.
The target of test [16] is 14:0-ACP. The source holds these as a separate data set.
The target of test [17] is 12:0-ACP. The source holds these as a separate data set.
Test [18] has as its target acyl-ACP substrates (chain length not stated for this assay).

Where a chain is given by its changes, count along the chain named. Names and notes keep the numbering of the source.

As to “mangosteen (Garcinia mangifera) Class I acyl-ACP thioesterase GarmFatA1, wild type (enzyme)”, the values for the Acyl-ACP Thioesterase activity (cpm/min) in [1], in test [2] and in test [3] were 23900 cpm/min, 4370 cpm/min and 87400 cpm/min, respectively.

The molecule “Cuphea palustris Class II acyl-ACP thioesterase CpFatB2 (MCT34), mature region as lacZ fusion protein (MCT34LZ) (enzyme)” came in with an acyl-ACP thioesterase activity (% of the C14-ACP activity) in [4] of 30.

“Cuphea palustris Class II acyl-ACP thioesterase CpFatB1 (MCT29), mature region as lacZ fusion protein (MCT29LZ) (enzyme)” returned an acyl-ACP thioesterase activity (% of the C8-ACP activity) in [5] of 10.

Consider “mangosteen GarmFatA1 mutant D261K (enzyme)”, for which the thioesterase activity, preference 18:0/18:1 (% (18:0/18:1)) in test [6] was 35.

One may read the Ki as the dissociation constant of the complex between target and ligand, obtained from inhibition or displacement. As for 12:0-ACP, the Inhibition (%) in [7] amounted to 53%; in [8], 48%; in test [11], 78%; in test [12], 76%. Besides, the inhibitory constant (Ki) in [9] worked out at 10.2 µM; in test [10], 11.6 µM.

B1: California bay (Umbellularia californica) C12 preferring acyl-ACP thioesterase, wild type, mature protein from pCGN3823 (enzyme)
chain: LEWKPKPKLPQLLDDHFGLHGLVFRRTFAIRSYEVGPDRSTSILAVMNHMQEATLNHAKSVGILGDGFGTTLEMSKRDLMWVVRRTHVAVERYPTWGDTVEVECWIGASGNNGMRRDFLVRDCKTGEILTRCTSLSVLMNTRTRRLSTIPDEVRGEIGPAFIDNVAVKDDEIKKLQKLNDSTADYIQGGLTPRWNDLDVNQHVNNLKYVAWVFETVPDSIFESHHISSFTLEYRRECTRDSVLRSLTTVSGGSSEAGLVCDHLLQLEGGSEVLRARTEWRPKLTDSFRGISVIPAEPRV
For B1, the Km,app amounted to 6.4 µM in [13] and 1.9 µM in [14].

B2: bay thioesterase mutant M197R/R199H (enzyme)
chain: B1 chain with M114R, R116H
B2: the thioesterase activity in [15] turned out to be 7 fold reduced.

B3: bay thioesterase triple mutant M197R/R199H/T231K (enzyme)
chain: B1 chain with M114R, R116H, T148K
In the case of B3, in test [13], the Km,app is 2.3 µM.

B4: bay thioesterase mutant R322M/R327Q (enzyme)
chain: B1 chain with R239M, R244Q
In the case of B4, the results for the thioesterase specific activity (fold decrease) in [16] and in test [17] were 30 and 100, respectively.

B5: bay thioesterase mutant R327Q (enzyme)
chain: B1 chain with R244Q
Take B5: the values for the thioesterase specific activity (fold decrease) in [16] and in test [17] were 30 and 100, respectively.

B6: bay thioesterase mutant C320S (enzyme)
chain: B1 chain with C237S
The molecule B6 displayed a thioesterase activity (% of the wild-type activity) in test [18] of 80.
